Experimental data: publication PMC3511376

Target: HIV-1 envelope glycoprotein gp120 (YU2) (HIV-1 (YU2)) (UniProt P35961)
Assay: SPR; BIAcore 3000, CM4 chip; gp120YU2 amine-coupled (514 RU for the Lg-CRD chip, 838 RU for the Lg-ECD chip), BSA control flow cell; Langerin injected at 20 µl/min; running buffer 150 mM NaCl, 25 mM Tris pH 7.8, 4 mM CaCl2, 0.005% P20; regeneration with 50 mM EDTA; 1:1 Langmuir fit for Lg-CRD, EC50 from titration for Lg-ECD

Langerin carbohydrate-recognition domain (CRD) (domain or fragment)
Kd: 25 µM
